This is an account of results in publication doi:10.1101/2025.09.08.674988.

In data set [1] the target is T1, NS5B(Δ21)-FlAsH-His (RNA-dependent RNA polymerase) (Hepatitis C virus genotype 2a, UniProt Q99IB8 2443-3012). Nature of the data set: EMSA. (In general: A gel shift assay detects complexes by their altered migration in electrophoresis.)
The target of data set [2] is T1, NS5B(Δ21)-FlAsH-His (RNA-dependent RNA …). The experiment in a line: EMSA. The source holds these as a separate data set.

Where two headings read alike, the source gives them in different places.

B1: 5'UTR RNA (ssRNA)
RNA: AUACUAACGCCAUGGCUAGGCGCUUUCUGCGUGAAGACAGUAGUUCCUCACAGGGGAGUGAUUCAUGGCGGAGUGUCGCCCCU
Regarding B1, the binding result in data set [1] is recorded as “binds”.

B2: Synthetic RNA (structured_RNA)
RNA: AGGGUUUUUUUUUUUAUUAUUUAUUCUUUAUUUUUCUUGCGUAGUUUUCUACG
As to B2, the binding result in data set [2] is “binds”.
